Results published in publication PMC3567102.

Molecular target: T1, wild-type Mtd (major tropism determinant), Mtd-GST fusion protein (Bordetella bronchiseptica bacteriophage), Q775D6
T1 chain: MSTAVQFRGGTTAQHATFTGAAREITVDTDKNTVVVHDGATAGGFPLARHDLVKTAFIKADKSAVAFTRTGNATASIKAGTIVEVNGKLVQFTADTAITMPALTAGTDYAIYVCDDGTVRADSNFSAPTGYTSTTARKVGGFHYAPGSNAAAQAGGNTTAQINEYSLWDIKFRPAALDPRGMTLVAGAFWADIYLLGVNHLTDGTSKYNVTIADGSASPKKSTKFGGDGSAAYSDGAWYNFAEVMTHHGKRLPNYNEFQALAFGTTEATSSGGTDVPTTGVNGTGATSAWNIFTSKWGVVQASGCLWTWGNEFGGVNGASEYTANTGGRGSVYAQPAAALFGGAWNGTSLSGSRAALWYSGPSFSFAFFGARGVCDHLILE
Assay: SEC; size exclusion chromatography of purified Mtd-GST fusion proteins after dialysis into PBS
Settings: remark: other sources report otherwise

B1: wild-type Mtd (major tropism determinant), Mtd-GST fusion protein, Q775D6 1-381 (natural protein)
chain: T1 chain
  stoichiometry N: 6
